According to US20190241663A1 (Genentech, published 2019):

T1: S114A human B7-H4 (full-length membrane construct, glycosylation site N112-S114 removed) (human, UniProt Q7Z7D3 29-282)
T1 construct: Transiently transfected into 293 cells; also called mutated S114A human B7-H4
T1 sequence: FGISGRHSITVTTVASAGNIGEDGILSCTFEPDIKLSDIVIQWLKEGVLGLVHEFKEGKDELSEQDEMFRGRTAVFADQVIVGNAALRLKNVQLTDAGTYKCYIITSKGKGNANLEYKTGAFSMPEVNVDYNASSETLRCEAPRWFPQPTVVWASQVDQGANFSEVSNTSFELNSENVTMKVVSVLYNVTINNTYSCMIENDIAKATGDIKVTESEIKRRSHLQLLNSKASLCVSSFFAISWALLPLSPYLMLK

T2: irrelevant (Ig-V)-B7-H4 (Ig-C; D158-G236 including TM/CD D237-K282) chimeric membrane protein (construct-88B) (human, UniProt Q7Z7D3 158-282)
T2 construct: Transiently expressed on 293 cells; also called B7-H4 Ig-C domain; not shown: irrelevant Ig-V domain; an N-terminal or cytoplasmic tag was attached but is not described
T2 sequence: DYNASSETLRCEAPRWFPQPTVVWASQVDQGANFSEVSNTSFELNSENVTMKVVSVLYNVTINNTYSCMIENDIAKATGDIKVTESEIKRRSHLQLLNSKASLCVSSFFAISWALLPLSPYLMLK

B1: chimeric antibody ch32D6 (antibody, V domains shown)
VH: EVQLQQSGPDLVKPGASVKISCKASGYSFTGYYIHWMKQSHGKSLEWIGRVNPNNGDPIYNQKFRGKAILTVDQSSNTAYMELRSLTSEASAVYYCARVLFYYGSPFAYWGQGTLVTVSA
VL: DIVMTQSPSSLIVTAGEKVTMSCRSSQSLFDSGSQRNYLTWFHQKPGRPPKLLIYWASTRESGVPDRFTGSGSGTDFTLTISSVQTEDLAVYFCQNDYSFPFTFGSGTKLEEK
B2: chimeric antibody ch9B9 (antibody, V domains shown)
VH: QVQLQQSGAELMKPGASVKMSCKATGYTFSSYWIEWVKQRPGHGLEWIGEILPGTSITTYNAKFKVKATFTADTSSNTAYMQLSSLTSEDSAVYFCARYYFGSSSFYFDYWGQGTSLTVSS
VL: QAVVTQESALTTSPGDTVTLTCRSSTGAVTTSNYANWVQEKPDHLFTGLIGGTNNRVPGVPARFSGSLIGDKAALTITGAQTEDEAMYFCALWYNNHWVFGGGTKLE
B3: ch1D11, slightly modified version with light chain C43G (antibody, human IgG1, V domains shown)
VH: QVQLQQSGAELVRPGTSVKMSCKASGYTFTSYWIGWAKQRPGHGFEWIGDIYPGGGYTNYNEKFKGKATLTADKSSSTAYMQFSSLTSEDSAIYYCARLDGSSYRGAMDSWGQGTSITVSS
VL: DIQMTQSPSSLSASLGGKVTITCKASQGFNKYVAWYQHKPGQGPRLLIHYTSTLQPGIPARFSGSGSGRDYSFSISNLEPEDSATYFCLQYGNLLYAFGGGTKLEIKR
notes: Human IgG1 / kappa chimeric; also called ch1D11 (C43G light chain)
B4: chimeric antibody ch22C10 (antibody, V domains shown)
VH: QVQLQQPGAELVKPGTSVKLSCKASGYTFTNFWIHWVIQRPGQGLEWIGEIDPSDSYTNYNQKFKGKATLTVDKSSNTAYMQLSSLTSEDSAVYYCSREITTVDYWGQGTTLTVSS
VL: QIVLTQSPTIMSASPGEKVTLTCSATSSISYMHWYQQKPGTSPKGWIYDTSKLAHGVPARFSGSGSGTSYSLTISSMEAEDAATYYCHQRRSYPFTFGSGTKLEIK
notes: also called ch2210; parental 22C10 antibody

Molecular target: T1, S114A human B7-H4 (full-length membrane …)
Experiment: FACS on 293 cells transfected with S114A human B7-H4, against isotype control
From the text: The B7-H4 (Ig-V) domain contains a single N-linked glycosylation site (N112-S114), and to determine whether glycosylation influences binding of the antibodies to B7-H4, S114 was substituted with alanine using standard site-specific mutagenesis to prevent glycosylation in the full-length human B7-H4 membrane construct.

fold binding over isotype control | Binder
100 fold | B1
100 fold | B2
100 fold | B3
100 fold | B4

Molecular target: T2, irrelevant (Ig-V)-B7-H4 (Ig-C; …)
Experiment: FACS on 293 cells transiently transfected with construct-88B, dye-labeled antibody
From the text: To determine whether the B7-H4 antibodies bind to either the Ig-V or Ig-C domain of B7-H4, chimeric Ig domain molecules were engineered that contain either a B7-H4 (IgV; G28-F150 including spacer S151-V157)—irrelevant (Ig-C) (construct-88) or an irrelevant (Ig-V)-B7-H4 (Ig-C; D158-G236 including TM/CD D237-K282) (construct-88B) membrane protein using standard molecular cloning methods. N-terminal or cytoplasmic tags were attached to confirm that 293 cells transfected with these constructs express protein on the cell membrane (data not shown). Briefly, 293 cells were transiently transfected with constructs 88 & 88B using polyfect. After 48 hours, the cells were stained with 10 μg/ml of Dylight-488 or −650 labeled ch9B9, ch1D11, ch22C10 or ch32D6 for 30-40 minutes at 4° C., washed and analyzed on a BD FACS calibur.

binding result | Binder
no binding (tested: 10 µg/ml) | B1
no binding (tested: 10 µg/ml) | B2
no binding (tested: 10 µg/ml) | B3
no binding (tested: 10 µg/ml) | B4
